Target: T1, CD16A (human, UniProt P08637 17-208, limits assumed)
T1 construct: Target of the hu3G8 VH/VL variant screen of section 5.1.2; also called FcγRIIIA
Assay: tetrameric IgG1 with hu3G8VL-1 light chain; binding to CD16A, method not named

T1 sequence (P08637 17-208 limits assumed): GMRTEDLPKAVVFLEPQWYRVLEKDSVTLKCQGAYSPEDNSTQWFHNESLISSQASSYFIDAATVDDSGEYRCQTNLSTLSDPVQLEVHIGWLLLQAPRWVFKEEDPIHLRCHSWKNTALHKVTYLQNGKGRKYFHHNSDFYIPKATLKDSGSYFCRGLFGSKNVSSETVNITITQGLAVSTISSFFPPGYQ

| binding result | Binder |
| --- | --- |
| binds | tetrameric antibody hu3G8VH-1 / hu3G8VL-1 (antibody, IgG1, V domains shown, VH on human Cgamma1 constant region (IgG1)) VH: QVTLRESGPALVKPTQTLTLTCTFSGFSLSTSGMGVGWIRQPPGKALEWLAHIWWDDDKRYNPALKSRLTISKDTSKNQVVLTMTNMDPVDTATYYCARINPAWFAYWGQGTLVTVSS VL: DIVMTQSPDSLAVSLGERATINCKASQSVDFDGDSFMNWYQQKPGQPPKLLIYTTSNLESGVPDRFSGSGSGTDFTLTISSLQAEDVAVYYCQQSNEDPYTFGQGTKLEIK |
| binds | tetrameric antibody hu3G8VH-22 / hu3G8VL-1 (antibody, IgG1, V domains shown, VH on human Cgamma1 (IgG1)) VH: QVTLRESGPALVKPTQTLTLTCTFSGFSLSTSGVGVGWIRQPPGKALEWLAHIWWDDDKRYSPSLKSRLTISKDTSKNQVVLTMTNMDPVDTATYYCARINPAYFAYWGQGTLVTVS VL: DIVMTQSPDSLAVSLGERATINCKASQSVDFDGDSFMNWYQQKPGQPPKLLIYTTSNLESGVPDRFSGSGSGTDFTLTISSLQAEDVAVYYCQQSNEDPYTFGQGTKLEIK |
| binds | tetrameric antibody hu3G8VH-5 / hu3G8VL-1 (antibody, IgG1, V domains shown, VH on human Cgamma1 (IgG1)) VH: QVTLRESGPALVKPTQTLTLTCTFSGFSLSTSGMGVGWIRQPPGKALEWLAHIWWDDDKRYNPALKSRLTISKDTSKNQVVLTMTNMDPVDTATYYCAQINPAWFAYWGQGTLVTVSS VL: DIVMTQSPDSLAVSLGERATINCKASQSVDFDGDSFMNWYQQKPGQPPKLLIYTTSNLESGVPDRFSGSGSGTDFTLTISSLQAEDVAVYYCQQSNEDPYTFGQGTKLEIK |

From patent US20160355586A1 (published 2016)
